This is an account of results in US20180177842A1 (CANIMGUIDE THERAPEUTICS, published 2018).

Ends that are not written are not given here.

In this experiment the target is T1, His-tagged P3028 (human, also: His tag, length and end not given here).
T1 construct: in solution at 0.5 ug/mL, detected with mouse anti-His antibody and rabbit anti-mouse peroxidase (rampo); also called PGE73; His-tag-P3028; not shown: His tag
T1 peptide: VFDEFKPLVEEPQNLIK
The experiment in a line: PEPSCAN ELISA, peptide on chip.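 Note: binding detected by peroxidase ELISA with ABTS, OD405 colour imaged by CCD camera before and after staining, raw OD405 reported as rampo units, air-bubble wells scored 0.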

B1: SEQ ID NO 322 (peptide)
peptide: KKLDTFQVKLSLFTER
Regarding B1, the “RAMPO Score” value was found to be 511 rampo units.

B2: SEQ ID NO 377 (peptide)
peptide: KKLDTFFVKLSLFGER
On to B2, for which the “RAMPO Score” value was 343 rampo units.

B3: SEQ ID NO 339 (peptide)
peptide: KKLDTFFVKQSLFTER
On to B3, for which the “RAMPO Score” value came to 470 rampo units.

B4: SEQ ID NO 342 (peptide)
peptide: KKLDTFFVKTSLFTER
As for B4, the “RAMPO Score” value was 399 rampo units.

B5: SEQ ID NO 351 (peptide)
peptide: KKLDTFFVKLSHFTER
Turning to B5, the “RAMPO Score” value came to 460 rampo units.

B6: SEQ ID NO 384 (peptide)
peptide: KKLDTFFVKLSLFSER
As to B6, the “RAMPO Score” value is 369 rampo units.

B7: SEQ ID NO 350 (peptide)
peptide: KKLDTFFVKLSAFTER
In the case of B7, the “RAMPO Score” value worked out at 462 rampo units.

B8: SEQ ID NO 358 (peptide)
peptide: KKLDTFFVKLSTFTER
For the molecule B8, the “RAMPO Score” value came out at 437 rampo units.

B9: SEQ ID NO 375 (peptide)
peptide: KKLDTFFVKLSLWTER
Take B9: the “RAMPO Score” value is 430 rampo units.

B10: SEQ ID NO 368 (peptide)
peptide: KKLDTFFVKLSLNTER
On to B10, for which the “RAMPO Score” value came to 862 rampo units.

B11: SEQ ID NO 353 (peptide)
peptide: KKLDTFFVKLSMFTER
For the molecule B11, the “RAMPO Score” value was 499 rampo units.

B12: SEQ ID NO 366 (peptide)
peptide: KKLDTFFVKLSLLTER
With B12, the “RAMPO Score” value turned out to be 448 rampo units.

B13: SEQ ID NO 334 (peptide)
peptide: KKLDTFFVKGSLFTER
For the molecule B13, the “RAMPO Score” value turned out to be 495 rampo units.

B14: SEQ ID NO 378 (peptide)
peptide: KKLDTFFVKLSLFHER
B14: the “RAMPO Score” value was 463 rampo units.

B15: SEQ ID NO 340 (peptide)
peptide: KKLDTFFVKRSLFTER
In the case of B15, the “RAMPO Score” value worked out at 439 rampo units.

B16: SEQ ID NO 362 (peptide)
peptide: KKLDTFFVKLSLCTER
In the case of B16, the “RAMPO Score” value came to 400 rampo units.

B17: SEQ ID NO 324 (peptide)
peptide: KKLDTFTVKLSLFTER
With B17, the “RAMPO Score” value stood at 517 rampo units.

B18: SEQ ID NO 341 (peptide)
peptide: KKLDTFFVKSSLFTER
Consider B18, for which the “RAMPO Score” value was determined as 351 rampo units.

B19: SEQ ID NO 355 (peptide)
peptide: KKLDTFFVKLSQFTER
With B19, the “RAMPO Score” value came out at 651 rampo units.

B20: SEQ ID NO 325 (peptide)
peptide: KKLDTFVVKLSLFTER
Turning to B20, the “RAMPO Score” value came to 527 rampo units.

B21: SEQ ID NO 344 (peptide)
peptide: KKLDTFFVKYSLFTER
Regarding B21, the “RAMPO Score” value was found to be 382 rampo units.

B22: SEQ ID NO 354 (peptide)
peptide: KKLDTFFVKLSNFTER
Regarding B22, the “RAMPO Score” value is 462 rampo units.

B23: SEQ ID NO 360 (peptide)
peptide: KKLDTFFVKLSWFTER
Consider B23, for which the “RAMPO Score” value is 409 rampo units.

B24: SEQ ID NO 335 (peptide)
peptide: KKLDTFFVKISLFTER
In the case of B24, the “RAMPO Score” value was 415 rampo units.

B25: SEQ ID NO 348 (peptide)
peptide: KKLDTFFVKLQLFTER
For the molecule B25, the “RAMPO Score” value was found to be 768 rampo units.

B26: SEQ ID NO 356 (peptide)
peptide: KKLDTFFVKLSRFTER
Regarding B26, the “RAMPO Score” value is 483 rampo units.

B27: SEQ ID NO 385 (peptide)
peptide: KKLDTFFVKLSLFVER
Regarding B27, the “RAMPO Score” value amounted to 380 rampo units.

B28: SEQ ID NO 373 (peptide)
peptide: KKLDTFFVKLSLTTER
On to B28, for which the “RAMPO Score” value was 494 rampo units.

B29: SEQ ID NO 331 (peptide)
peptide: KKLDTFFVRLSLFTER
Turning to B29, the “RAMPO Score” value was determined as 374 rampo units.

B30: SEQ ID NO 328 (peptide)
peptide: KKLDTFFLKLSLFTER
With B30, the “RAMPO Score” value came out at 411 rampo units.

B31: SEQ ID NO 333 (peptide)
peptide: KKLDTFFVKFSLFTER
As to B31, the “RAMPO Score” value was 403 rampo units.

B32: SEQ ID NO 330 (peptide)
peptide: KKLDTFFRKLSLFTER
With B32, the “RAMPO Score” value was determined as 365 rampo units.

B33: SEQ ID NO 347 (peptide)
peptide: KKLDTFFVKLNLFTER
Turning to B33, the “RAMPO Score” value stood at 451 rampo units.

B34: SEQ ID NO 329 (peptide)
peptide: KKLDTFFPKLSLFTER
As for B34, the “RAMPO Score” value amounted to 456 rampo units.

B35: SEQ ID NO 346 (peptide)
peptide: KKLDTFFVKLMLFTER
B35: the “RAMPO Score” value was 744 rampo units.

B36: SEQ ID NO 349 (peptide)
peptide: KKLDTFFVKLTLFTER
With B36, the “RAMPO Score” value was determined as 520 rampo units.

B37: SEQ ID NO 371 (peptide)
peptide: KKLDTFFVKLSLRTER
Take B37: the “RAMPO Score” value is 502 rampo units.

B38: SEQ ID NO 365 (peptide)
peptide: KKLDTFFVKLSLITER
On to B38, for which the “RAMPO Score” value is 468 rampo units.

B39: SEQ ID NO 363 (peptide)
peptide: KKLDTFFVKLSLGTER
B39: the “RAMPO Score” value turned out to be 531 rampo units.

B40: SEQ ID NO 359 (peptide)
peptide: KKLDTFFVKLSVFTER
With B40, the “RAMPO Score” value is 545 rampo units.

B41: SEQ ID NO 332 (peptide)
peptide: KKLDTFFVKASLFTER
Take B41: the “RAMPO Score” value was determined as 426 rampo units.

B42: SEQ ID NO 367 (peptide)
peptide: KKLDTFFVKLSLMTER
As for B42, the “RAMPO Score” value amounted to 1190 rampo units.

B43: SEQ ID NO 382 (peptide)
peptide: KKLDTFFVKLSLFNER
Take B43: the “RAMPO Score” value stood at 599 rampo units.

B44: SEQ ID NO 357 (peptide)
peptide: KKLDTFFVKLSSFTER
B44: the “RAMPO Score” value was 478 rampo units.

B45: SEQ ID NO 345 (peptide)
peptide: KKLDTFFVKLHLFTER
B45: the “RAMPO Score” value came to 535 rampo units.

B46: SEQ ID NO 338 (peptide)
peptide: KKLDTFFVKPSLFTER
Regarding B46, the “RAMPO Score” value is 436 rampo units.

B47: SEQ ID NO 327 (peptide)
peptide: KKLDTFFGKLSLFTER
B47: the “RAMPO Score” value turned out to be 379 rampo units.

B48: SEQ ID NO 343 (peptide)
peptide: KKLDTFFVKVSLFTER
With B48, the “RAMPO Score” value was 658 rampo units.

B49: SEQ ID NO 381 (peptide)
peptide: KKLDTFFVKLSLFMER
For the molecule B49, the “RAMPO Score” value is 501 rampo units.

B50: SEQ ID NO 361 (peptide)
peptide: KKLDTFFVKLSLATER
Turning to B50, the “RAMPO Score” value amounted to 525 rampo units.

B51: SEQ ID NO 326 (peptide)
peptide: KKLDTFFFKLSLFTER
B51: the “RAMPO Score” value is 358 rampo units.

B52: SEQ ID NO 383 (peptide)
peptide: KKLDTFFVKLSLFPER
B52: the “RAMPO Score” value came out at 551 rampo units.

B53: SEQ ID NO 370 (peptide)
peptide: KKLDTFFVKLSLQTER
For the molecule B53, the “RAMPO Score” value was 1140 rampo units.

B54: SEQ ID NO 386 (peptide)
peptide: KKLDTFFVKLSLFWER
Consider B54, for which the “RAMPO Score” value stood at 374 rampo units.

B55: SEQ ID NO 369 (peptide)
peptide: KKLDTFFVKLSLPTER
For B55, the “RAMPO Score” value came to 696 rampo units.

B56: SEQ ID NO 374 (peptide)
peptide: KKLDTFFVKLSLVTER
Consider B56, for which the “RAMPO Score” value was 446 rampo units.

B57: SEQ ID NO 376 (peptide)
peptide: KKLDTFFVKLSLFFER
For B57, the “RAMPO Score” value was 348 rampo units.

B58: SEQ ID NO 380 (peptide)
peptide: KKLDTFFVKLSLFLER
B58: the “RAMPO Score” value is 360 rampo units.

B59: SEQ ID NO 379 (peptide)
peptide: KKLDTFFVKLSLFIER
For the molecule B59, the “RAMPO Score” value is 375 rampo units.

B60: SEQ ID NO 372 (peptide)
peptide: KKLDTFFVKLSLSTER
In the case of B60, the “RAMPO Score” value is 635 rampo units.

B61: SEQ ID NO 336 (peptide)
peptide: KKLDTFFVKMSLFTER
For the molecule B61, the “RAMPO Score” value worked out at 460 rampo units.

B62: SEQ ID NO 352 (peptide)
peptide: KKLDTFFVKLSIFTER
With B62, the “RAMPO Score” value was found to be 456 rampo units.

B63: SEQ ID NO 323 (peptide)
peptide: KKLDTFSVKLSLFTER
On to B63, for which the “RAMPO Score” value is 700 rampo units.

B64: SEQ ID NO 364 (peptide)
peptide: KKLDTFFVKLSLHTER
As to B64, the “RAMPO Score” value came out at 1050 rampo units.

B65: SEQ ID NO 337 (peptide)
peptide: KKLDTFFVKNSLFTER
For B65, the “RAMPO Score” value worked out at 365 rampo units.
